According to publication PMC3282585 (Science Signaling, 2011):

Molecular target: T1, IL17RA-SEFIR (SEFIR domain-containing fragment of human IL17RA, residues 351 to 616) (human, UniProt Q96F46 351-616)
T1 sequence (looked up): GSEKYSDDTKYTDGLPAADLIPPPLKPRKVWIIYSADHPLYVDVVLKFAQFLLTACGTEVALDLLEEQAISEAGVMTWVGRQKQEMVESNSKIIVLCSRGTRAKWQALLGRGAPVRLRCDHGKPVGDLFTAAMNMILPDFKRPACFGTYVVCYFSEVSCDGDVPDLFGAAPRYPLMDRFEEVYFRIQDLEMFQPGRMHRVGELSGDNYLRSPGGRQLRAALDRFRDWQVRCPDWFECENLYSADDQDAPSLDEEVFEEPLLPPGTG
Experiment: SPR

binding result: binds
Binder: LDEDEHGLHTKY [CC′ loop peptide of the Act1 SEFIR domain]
